Reference: US20090298197, “SERS-BASED METHODS FOR DETECTION OF BIOAGENTS” (OXONICA MATERIALS INC., published 2009)

Columns and labels:
ovalbumin = ovalbumin (UniProt P01012 P01012:2-386); assay: negative control, little signal; nanowire fluorescence beacon; details: label: TAMRA 3'; no hairpin
Procedure: Probe assembly was performed as for standard molecular beacons. The assay was performed by diluted the thrombin protein with Tris-HCl buffer to attain desired concentration. Then 50 μl thrombin protein solution was mixed with 3 μl nanowire assembled aptamer probe in a microfuge tube and incubated for 30 min, with rotation at room temperature. The contents were centrifuged, washed with 0.1% Tween-20/PBS once and fluorescence images acquired using fluorescence microscope described above.
As expected no fluorescence was observed, due to the fluorescence quenching of the TAMRA by the nanowire. However, when the thrombin protein was added to the reaction by incubating 10 μg/ml thrombin with 3 μl nanowire-Apt1 assembled probes for 30 min, fluorescence was restored. An investigation into the effect of the hairpin in the beacons was carried out. […] This sequence was therefore used for subsequent experiments. […] When this experiment was repeated in 50% serum, the detection limit was again approximately 50 nM (FIG. 15B). These are very encouraging results. Finally, it is important to understand the specificity of the assay, in addition to the sensitivity. THR Apt 3 assembled nanowires were incubated with a pair of homologous proteins, α Thrombin and β Thrombin, and with ovalbumin as a negative control, and a blank (labeled control). […]

alpha-thrombin [1] = target: T1, alpha-thrombin (UniProt P00734;P00734 P00734:328-363,P00734:364-622); assay: nanowire fluorescence beacon; highest signal to noise; thrombin detected at about 50 nM in buffer and in 50% serum (detection limit, not Kd); greatest signal wi
alpha-thrombin [2] = target: T1, alpha-thrombin; assay: fluorescence restored on nanowire beacon with 10 ug/ml thrombin (form not specified), Tris-HCl, 30 min, room temperature

ovalbumin, sequence (P01012 2-386, one chain of several): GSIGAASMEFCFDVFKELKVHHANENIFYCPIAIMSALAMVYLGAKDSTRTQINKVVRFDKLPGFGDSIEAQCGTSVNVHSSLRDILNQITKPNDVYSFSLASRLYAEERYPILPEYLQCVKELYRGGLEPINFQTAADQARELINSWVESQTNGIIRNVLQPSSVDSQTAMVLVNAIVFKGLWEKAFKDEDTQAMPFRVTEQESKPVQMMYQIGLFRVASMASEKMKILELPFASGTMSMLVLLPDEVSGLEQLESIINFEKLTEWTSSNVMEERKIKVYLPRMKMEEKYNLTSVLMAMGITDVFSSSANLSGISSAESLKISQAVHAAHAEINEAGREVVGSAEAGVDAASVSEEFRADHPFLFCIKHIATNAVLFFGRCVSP

B1: THR Apt3 (ssDNA)
DNA: TGGTTGGTGTGGTTGG
modifications: 5' thiol-(CH2)6, 3' (CH2)7-TAMRA, assembled on Au/Ag nanowires
- binding result (ovalbumin): no binding
- binding result (alpha-thrombin [1]): binds

B2: THR Apt1 (ssDNA)
DNA: CCAACGGTTGGTGTGGTTGG
modifications: 5' thiol-(CH2)6, 3' (CH2)7-TAMRA, assembled on Au/Ag nanowires
- binding result (alpha-thrombin [2]): binds
